Experimental data as given in patent US20200323973A1 (INSTITUTE FOR SYSTEMS BIOLOGY, published 2020).
Bridge positions count the residues as written; N and C are the ends. Ends that are not written are not given here. * marks the point of attachment. Biotin = O=C1N[C@H]2[C@H](CS[C@H]2CCCCC(=O)*)N1

Experiments:
[1] = molecular target: recombinant full-length MrkA protein with an N-terminal 6xHis-SUMO-tag (MyBiosource, MBS1248970) (Klebsiella pneumoniae) (UniProt P12267); assay: sandwich ELISA 2, 25 nM MrkA; PCC immobilised
[2] = molecular target: recombinant full-length MrkA protein with an N-terminal 6xHis-SUMO-tag (MyBiosource, MBS1248970) (Klebsiella pneumoniae) (UniProt P12267); assay: sandwich ELISA 2, 25 nM MrkA; reference compound, ratio to itself
[3] = molecular target: recombinant full-length MrkA protein with an N-terminal 6xHis-SUMO-tag (MyBiosource, MBS1248970) (Klebsiella pneumoniae) (UniProt P12267); assay: sandwich ELISA 6, 25 nM MrkA; reference compound, ratio to itself
[4] = molecular target: recombinant full-length MrkA protein with an N-terminal 6xHis-SUMO-tag (MyBiosource, MBS1248970) (Klebsiella pneumoniae) (UniProt P12267); assay: ELISA with the PCC immobilised, full-length recombinant MrkA (FIG. 3A)
[5] = molecular target: recombinant full-length MrkA protein with an N-terminal 6xHis-SUMO-tag (MyBiosource, MBS1248970) (Klebsiella pneumoniae) (UniProt P12267); assay: sandwich ELISA 4, 100 nM MrkA; reference compound, ratio to itself
[6] = molecular target: recombinant full-length MrkA protein with an N-terminal 6xHis-SUMO-tag (MyBiosource, MBS1248970) (Klebsiella pneumoniae) (UniProt P12267); assay: sandwich ELISA 5, 25 nM MrkA; reference compound, ratio to itself
[7] = molecular target: recombinant full-length MrkA protein with an N-terminal 6xHis-SUMO-tag (MyBiosource, MBS1248970) (Klebsiella pneumoniae) (UniProt P12267); assay: sandwich ELISA 1, [MrkA] N/A; reference compound, ratio to itself
[8] = molecular target: recombinant full-length MrkA protein with an N-terminal 6xHis-SUMO-tag (MyBiosource, MBS1248970) (Klebsiella pneumoniae) (UniProt P12267); assay: sandwich ELISA 3, 50 nM MrkA; reference compound, ratio to itself
[9] = molecular target: recombinant full-length MrkA protein with an N-terminal 6xHis-SUMO-tag (MyBiosource, MBS1248970) (Klebsiella pneumoniae) (UniProt P12267); assay: sandwich ELISA: biotinylated PCC on NeutrAvidin plate, His-SUMO-MrkA titrated, anti-His detection (FIG. 3A)
[10] = molecular target: recombinant full-length MrkA protein with an N-terminal 6xHis-SUMO-tag (MyBiosource, MBS1248970) (Klebsiella pneumoniae) (UniProt P12267); assay: sandwich ELISA 3, 50 nM MrkA; PCC immobilised
[11] = molecular target: recombinant full-length MrkA protein with an N-terminal 6xHis-SUMO-tag (MyBiosource, MBS1248970) (Klebsiella pneumoniae) (UniProt P12267); assay: sandwich ELISA 6, 25 nM MrkA; PCC immobilised
[12] = molecular target: recombinant full-length MrkA protein with an N-terminal 6xHis-SUMO-tag (MyBiosource, MBS1248970) (Klebsiella pneumoniae) (UniProt P12267); assay: ELISA with the PCC immobilised, full-length recombinant MrkA
[13] = molecular target: recombinant full-length MrkA protein with an N-terminal 6xHis-SUMO-tag (MyBiosource, MBS1248970) (Klebsiella pneumoniae) (UniProt P12267); assay: sandwich ELISA 4, 100 nM MrkA; PCC immobilised
[14] = molecular target: T1, MrkA on Klebsiella pneumoniae cells (assembled into type 3 fimbriae) (Klebsiella pneumoniae, UniProt P12267 23-202); assay: whole-cell ELISA, biotinylated PCC and SAv-HRP; KPPR1 (FIG. 5B); also two MrkA-expressing strains at 5 µM (FIG. 5C)
T1 construct: whole, on cells; One molecule is used for all three strains; The strain is named under assay; MrkA oligomerises in the fimbriae and the number of copies is not fixed; also called MrkA-expressing K. pneumoniae cells; wild type KPPR1 (ATCC 43816)
T1 sequence: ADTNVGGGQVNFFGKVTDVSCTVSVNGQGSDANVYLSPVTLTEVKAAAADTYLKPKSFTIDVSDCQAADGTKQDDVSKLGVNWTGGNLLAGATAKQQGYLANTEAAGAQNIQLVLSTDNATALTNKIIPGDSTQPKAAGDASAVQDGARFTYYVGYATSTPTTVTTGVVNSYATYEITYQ

[15] = molecular target: T1, MrkA on Klebsiella pneumoniae cells …; assay: whole-cell ELISA on wild type KPPR1 (ATCC 43816) grown in G-CAA; biotinylated PCC, SAv-HRP
[16] = molecular target: T1, MrkA on Klebsiella pneumoniae cells …; assay: flow cytometry on K. pneumoniae BAA 2146, Alexafluor 488 anti-DNP detection
[17] = molecular target: T2, SynEp 1 (SEQ ID NO:38) (Klebsiella pneumoniae, also: one residue replaced by azidolysine, position not given here); assay: sandwich ELISA: biotinylated SynEp immobilised, cy(LLFFF)-DNP titrated, anti-DNP detection; background biotin-PEG6 subtracted
T2 peptide: {Biotin-peg5}-FFGKVTDVSCTVSV

[18] = molecular target: T1, MrkA on Klebsiella pneumoniae cells …; assay: whole-cell ELISA on two strains of MrkA-expressing K. pneumoniae (FIG. 5C); biotinylated PCC, SAv-HRP

Q: With “biotinylated cy(LLFFA) (SEQ ID NO:11) (peptide)” as the molecule, how does the Relative affinity (ratio of ELISA signal to cy(LLFFF)) [1] read?
A: Its Relative affinity (ratio of ELISA signal to cy(LLFFF)) is 0.04.

Q: What does the source list for “biotinylated cy(LLFFF) (SEQ ID NO:5) (peptide)”?
A: Relative affinity (ratio of ELISA signal to cy(LLFFF)) [2]: 1; Relative affinity (ratio of ELISA signal to cy(LLFFF)) [3]: 1; EC50 [4]: 230 nM; Relative affinity (ratio of ELISA signal to cy(LLFFF)) [5]: 1; Relative affinity (ratio of ELISA signal to cy(LLFFF)) [6]: 1; Relative affinity (ratio of ELISA signal to cy(LLFFF)) [7]: 1; Relative affinity (ratio of ELISA signal to cy(LLFFF)) [8]: 1; EC50 [9]: 50 nM

Q: cy(AAFFF) (SEQ ID NO:14) (peptide) was tested. Which Relative affinity (ratio of ELISA signal to cy(LLFFF)) [10] did it give?
A: The Relative affinity (ratio of ELISA signal to cy(LLFFF)) was 0.15.

Q: How did the Relative affinity (ratio of ELISA signal to cy(LLFFF)) [1] turn out when cy(ALFFF) (SEQ ID NO:7) (peptide) was run?
A: The Relative affinity (ratio of ELISA signal to cy(LLFFF)) was 0.53.

Q: How did the Relative affinity (ratio of ELISA signal to cy(LLFFF)) [11] turn out when cy(DLFFF) (SEQ ID NO:12) (peptide) was run?
A: The Relative affinity (ratio of ELISA signal to cy(LLFFF)) was 0.21.

Q: With cy(GVHRL) (SEQ ID NO:57) (peptide) as the molecule, how does the affinity (likely) [12] read?
A: Its affinity (likely) is 1 µM.

Q: cy(HLFFF) (SEQ ID NO:13) (peptide) was tested. Which Relative affinity (ratio of ELISA signal to cy(LLFFF)) [11] did it give?
A: The Relative affinity (ratio of ELISA signal to cy(LLFFF)) was 0.81.

Q: For cy(LAFFF) (SEQ ID NO:8) (peptide), which Relative affinity (ratio of ELISA signal to cy(LLFFF)) [1] is on record?
A: Its Relative affinity (ratio of ELISA signal to cy(LLFFF)) is 0.26.

Q: Which Relative affinity (ratio of ELISA signal to cy(LLFFF)) [1] does the source give for cy(LLAFF) (SEQ ID NO:9) (peptide) here?
A: Its Relative affinity (ratio of ELISA signal to cy(LLFFF)) is 0.59.

Q: cy(LLFAF) (SEQ ID NO:10) (peptide) was tested. Which Relative affinity (ratio of ELISA signal to cy(LLFFF)) [1] did it give?
A: Its Relative affinity (ratio of ELISA signal to cy(LLFFF)) is 0.1.

Q: How did the Relative affinity (ratio of ELISA signal to cy(LLFFF)) [13] turn out when cy(TTFFF) (SEQ ID NO:35) (peptide) was run?
A: Its Relative affinity (ratio of ELISA signal to cy(LLFFF)) is 0.04.

Q: And the affinity (likely) [12]?
A: Its affinity (likely) is 1 µM.

Q: For cy(YRHLG) (SEQ ID NO:56) (peptide), which affinity (likely) [12] is on record?
A: Its affinity (likely) is 1 µM.

B1: biotinylated cy(LLFFF) (SEQ ID NO:5) (peptide)
peptide: LLFFF-azidolysine
modifications: triazole N-C; not fully specified (N-terminus); also: biotin-PEG tag by assay: Bio-Peg10-peg10, Bio-peg10 or Bio-peg5
notes: The biotin-PEG tags differ between assays; They are non-peptide, so one molecule is used and the tag is named under assay; also called cy(X-LLFFF-Z)
Q: Does B1 bind [14]?
A: Result: binds

B2: biotinylated cy(LLFFA) (SEQ ID NO:11) (peptide)
peptide: LLFFA-propargylglycine
modifications: triazole N-C; not fully specified (N-terminus); printed as cy(Z-LLFFA-X); also: biotin-PEG tag: Bio-peg10 or biotin-peg5 (whole-cell ELISA)
notes: also called Compound Number 6; cy(Z-LLFFA-X)
Q: Does B2 bind [15]?
A: Result: no binding (tested: 5 µM down to 5 nM)

B3: cy(LLFFF)-DNP (SEQ ID NO:5) (peptide)
peptide: LLFFF-azidolysine
modifications: triazole N-C; not fully specified (N-terminus); printed as cy(LLFFF)-DNP; also: linker peg5 or peg5-peg5 by assay
notes: also called DNP-conjugated cy(LLFFF); lead AR-PCC
Q: Does B3 bind [16]?
A: Result: binds

Q: Does B3 bind [17]?
A: Result: no binding (tested: 500 nM)

B4: biotinylated dummy ligand cy(HNGPT) (SEQ ID NO:18) (peptide)
peptide: HNGPT
modifications: macrocycle: propargylglycine before and azidolysine after the printed residues, joined by a triazole (cy); N-terminal biotin-peg5 tag
Q: Does B4 bind [18]?
A: Result: no binding
